Reference: the DeepSol protein solubility set

Assay: soluble on expression in E. coli; label from the status in PepcDB or PDB records

| Sequence | soluble on expression in E. coli |
| --- | --- |
| MGSDKIHHHHHHMGKARRGLQRGNGVHRHEAVRMFISLREIAPQGGLGPPRQLAGRRIAHVLDQAFRVALEVSARCHAVRVAHRVKSFVCTQQSRFVMGRQRLASMAHLRQNPPMAKLYFNYSTMNAGKSTLLLQASYNYIERGMQTYLLTANFDDRAGMGRIGSRIGIEAEADTYTQSDDLFAKIDARLKAGPCACVLVDEAQWMTRDQVWQLARAVDDLGVPVMCYGLRVDFRGELFPGSAALLALADEMREVRTICHCGRKATMVIRVGEDGNALAEGAQIEVGGNDRYISLCRKHFREAVGDVPV | not soluble |
| MIAVSFKCRCQILRRLTKDESPYTKSASQTKPPDGALAVRRQSIPEEFKGSTVVELMKKEGTTLGLTVSGGIDKDGKPRVSNLRQGGIAARSDQLDVGDYIKAVNGINLAKFRHDEIISLLKNVGERVVLEVEYELPPVSVQGSSVIFRTVEVTLHKEGNTFGFVIRGGAHDDRNKSRPVVITCVRPGGPADREGTIKPGDRLLSVDGIRLLGTTHAEAMSILKQCGQEAALLIEYDVSVMDSVATASGPLLVEVAKTPGASLGVALTTSMCCNKLVIVIDKIKSASIADRCGALHVGDHILSIDGTSMEYCTLAEATQFLANTTDQVKLEILPHHQTRLALKGPDHAALVSSSFSPTSMSAYSLSSLNMGTLPRSLYSTSPRGTMMRRRLKKKDFKSSLSLASSTVGLAGQVVHTETTEVVLTADPVTGFGIQLQGSVFATETLSSPPLISYIEADSPAERCGVLQIGDRVMAINGIPTEDSTFEEASLLLRDSSITSKVTLEIEFDVAESVIPSSGTFHVKLPKKHNVELGITISSPSSRKPGDPLVISDIKKGSVAHRTGTLELGDKLLAIDNIRLDNCSMEDAVQILQQCEDLVKLKIRKDEDNSDEQESSGAIIYTVELKRYGGPLGITISGTEEPFDPIIISSLTKGGLAERTGAIHIGDRILAINSSSLKGKPLSEAIHLLQMAGETVTLKIKKQTDAQSASSPKKFPISSHLSDLGDVEEDSSPAQKPGKLSDMYPSTVPSVDSAVDSWDGSAIDTSYGTEGTSFQASGYNFNTYDWRSPKQRGSLSPVTKPRSQTYPDVGLSYEDWDRSTASGFAGAADSAETEQEENFWSQALEDLETCGQSGILRELEATIMSGSTMSLNHEAPTPRSQLGRQASFQERSSSRPHYSQTTRSNTLPSDVGRKSVTLRKM | soluble |
| MIAVIFEVWPAEGEKQHYLDIAAGLRAELETIDGFLSIERFQSISNPEKMLSLSFFRDEQAVRAWRNTLPHRTAQALGRSGVFSDYRLRIAHVIRDYGLLEREEAPADSRDAHPVEGSSLG | not soluble |
| MADQHPTAQRPIDAHGIIGDMRSAALVDDQGSIDFFCWPEFDSPSIFCSLLDSPAAGIFELAPVLADARRQQIYLPDSNVLQTRWLGTEAVVEVTDLLTIDDDPEQLPLLIRRVRVVSGQATLRLHCAPRLDYLEHHHHHH | not soluble |
| MSQPIQFESNIALINYPKQAAFGRTLPKNKIYEHSGANTRLKDLFIEQVELIVWRYKLAPETINLPARPGVPELQIFSIQLKTSELNLDVLHCIDGAVQFPIIFELSFDGRTKVIAAYKRPNESDASRWVLSSYFATAWLPSDSERAAIPLALDLGGLYEQVLHRLIPMPARPQESLADLVARVEMVAAKQREVEKAASRLAKEKQFNRKVEINAQLRQLKNELEELTGRENA | not soluble |
| MGSSHHHHHHSSGLVPRGSHMAASTVAGELGLSITGLGVQYPPYSLGPDAIDILSKRYHPESPAMKKVLAINRYTGIDQRSSIGNPDHPLVNKPNPPTVKELHEVFMSDGVPLAVEASRKAMAEARLVPAQITHMVSTTCTDSANPGYDHYVAKELGLSDRLEKVLLHGIGCSGGLAALRTAANLCLGHTARGKPARILVLALEVSTTMVRSELESIDALQETRIGIALFSDCASAVILSNGIGEAPGKPAIYDLLGWENRVIPDSEHDLGFDVDPMGWKVVLSPRVPVLAKASLQPTYADLLSSLQDQLPSSYQKPADFDWAMHPGGATILSGAESAMGLTPEHMRASYDRYINHGNSSSATIFSVLNRLREKDMDALAPGGKVKEYVVGCAFGPGINVEMCMLKRRMNAPARTTTGLDTPPETDDSEGPGPGSSAGSDDGESIEGGEKEEKFINEALDNVELD | soluble |
| MGSDKIHHHHHHMNHTSADTTLRAFAQLIAEGTCLPAEERAPGQLKTGVDLGTANIVLSVVDANNRPVTGAMFPSTVVRDGIVVDYVGAVSVVRRLKAELEDRLGCPLTFAGTAIPPGILAGNVKAIANVVEAAGFEVADVSDEPTAASRVLGLREGAVVDVGGGTTGISILKNGEVVFTDDEATGGTHMTLVLAGAHGVSFEEAEAMKKDTAAARDVFAVVQPVVEKMASIVKRCLKGYDVETVYVVGGACTFDQFEQVFRKEIGLTIVKPAEPLLVTPLGIAMYGATPGEGAL | not soluble |
| MSLSLWQQCLARLQDELPATEFSMWIRPLQAELSDNTLALYAPNRFVLDWVRDKYLNNINVLLNDFCGMDAPLLRFEVGSKPLVQTISQPAQSHHNPVSVARQQPVRMAPVRPSWDNSPVQAEHTYRSNVNPKHTFDNFVEGKSNQLARAAARQVADNPGGAYNPLFLYGGTGLGKTHLLHAVGNGIIARKPNAKVVYMHSERFVQDMVKALQNNAIEEFKRYYRSVDALLIDDIQFFANKERSQEEFFHTFNALLEGNQQIILTSDRYPKEINGVEDRLKSRFGWGLTVAIEPPELETRVAILMKKADENDIRLPGEVAFFIAKRLRSNVRELEGALNRVIANANFTGRSITIDFVREALRDLLALQEKLVTIDNIQKTVAEYYKIKIADLLSKRRSRSVARPRQMAMALAKELTNHSLPEIGDAFGGRDHTTVLHACRKIEQLREESHDIKEDFSNLIRTLSSLEHHHHHH | soluble |
| MKALTTRQQEVYDLVRDHLAQTGMPPTRAEIAQRLGFRSPNAAEEHLKALARKGVIEIVSGASRGIRLLMEEEEGLPLIGRVAAGEPLLAQQHIEGHYKVDPSLFKPGADFLLRVNGMSMRDIGILDGDLLAVHKTQDVRNGQVVVARIDDEVTVKRLKKQGNIVHLLPENSEFQPIVVDLREQSFTIEGLAVGVIRNGDWI | not soluble |
| MAAASFAPFQDLANLLIPYTHAEKIDGSHDVSHLLRVWKNVCAIRDREGGDARVLMAATLLHDCVSVEKDSPFRAGASRLAAARARELLGDMGWDEESIASVAHAVEAHSFSAAITPVSLEAKILQDADRLDSLGMIGVARTFYVSGRMGKYLYEPNDPHASQRPYDDKRFAVDHFHTKLLHLADGFQTRTGTQMAKVRHDRLKRFLDELMEEIDASRPLEHHHHHH | not soluble |
| MSADTLQIAYSPCPNDTFVFDALAHGRVPGAPALDVTFADIDITNGMAERGELDVLKVSYAVLPYVLDDWALLPCGGALGRGCGPLVLTREADADLRGRTVAVPSETSTAYLLFRLWAADTVPGGVGEIVVMPFHEIMPAVRDGKVDAGLVIHEARFTYQNYGLHKLADMGEHWEHTTGLPIPLGAIIARRSLGAPALTRLADAVRASVRAAWDDPEASRPYVMEHAQEMDPAVADQHIGLYVNEFTADLGEDGYAAIRGLLTRAAAEGLVPALGPDALAFP | not soluble |
| MSLVTQQALPPVVSSAASPSPQASAPLPTDKTAIAIVLQGFGYSDALTYDVLSRIPAPVAVGISPYVSNISDIIARAHASHREVYVTLPMQSAHPERVDEGPHALGYGNSAADDQRELEWCLSRAAGAEGLTDASENGDDQPGGGYATSPDFSPIASAISSKGLLYLAGSAQDGRRTRGMTATAWIDGDTDAATLDSRLAALLPQDGKPAKILLMVGPITPVMIDRLANWLKGPAAQNFVVVPPSAFADSGISNDQAANLSPSNPVAPLEGHHHHHH | soluble |
| SKKQLDMSQKKTLTIDSELRFDELSLDTVRDFEKLAPFGMDNKKPVFLLKDFKVSQARVMGQNGAHLKLKLEQDGQALDLVAFNMGSQLQEFQQAQHLELAVTLSVNQWNGATTLQ | not soluble |
| MGSDKIHHHHHHMNYKITTLAENSVYGKGLQGEHGLSLLVEAGEHKVLFDTGASDLFLRNARLLGLDLSDVEYVVLSHGHRDHTGGLYAFLKMNSVAKVVCKREVFRKKFKNERENGMLHPEALDKSRFWLVDETTEIVPGVFAFPDVKVVDRNDTHFEHFFTEIEGEMRPDTFEDELALVLKGEKSLSVLSACSHRGITNIIRAVQNAFPGLGLKLVMGGFHIHNAEEEKFNVISAFLGMKLPKRLGVCHCTGIDKYALFRQQFNDRVFYNYTGWVETI | not soluble |
| MGSDKIHHHHHHMKVALLSPIAWRTPPRHYGPWERVVSLIAEGLVKKGVDVTLFATGDSKTAGRLEYICPIPYEENPNMDAKVWEAMHIAHLFEQAHKFDIIHNNYDFLPLSYSRQVDTPMITTIHGFSSPKILPIYREYNRNNYYVSISNADRSPDLDYYATVYHGIDLNELTLKLNAGSYLLYFGRIHPDKGTAQAIEIARKSDMQLLIAGIIQDKQYFNQQIYPRIDNKKVIYLGSVGPAKRDELLGNALALLHPIHFNEPFGLSVIEAMACGTPVIAFNKGSMPEVIKDGETGFLVDNVEMACEKLGSINKIKRANCRYWVEENFSQERMVSDYLSLYQEIIKGGKLPVRTPSLSGRCK | not soluble |
| MEHNILQVIALAEKLKYEMRHSWLSNGRQESVAEHTWRMSLMAILVEPYLDQKVSIEKLLKMVIIHDLVEAEAGDIPAFDTMNSHDLQLQKQKNELEAILNIKQTLTGSLGEELYDLWMEFEAKETYEAKVANALDKLEVKIQHNEADIDTWLPIEHKMTFQVAKHTNFDSFLSKLQKIIEQDGEKKLIAAGIDVEACKQ | soluble |
| MSNKTSIEGLSALLHTLMLIPQHRWITVRELQQQLALLDIHRTTRSIKRYLDEVIVEVFNVECDSMSMPHVYRKTSEQLLKLNKQEMLYWQLTNKYLLPLVPDALNYGQGSSSERDKPLPHKASAHSKEQEWLAKVHVVLPTIREWNDEQRQVLNAVHTALLHNRMLKISSQVLQQEKALIEPLGLSVQCDALLLLFRLSGQHTIRTLALPLIDEATVSTFSFTYPTDFNLERFMREHDGVSAS | not soluble |
| GKPKTDTDFQTYNGDGFKLQIPSKWNPNKEVEYPGQVLRFEDNFDATSNVIVAITPTDKKSITDFGSPEQFLSQVDYLLGRQAYSGKTDSEGGFESDAVAIANVLETSTAEVGGKQYYYLSILTRTADGNEGGKHQLVTATVNDGKLYICKAQAGDKRWFKGAKKFVENTATSFSLA | soluble |
| MAIFTDPIREHADFGPGDAEWLHLLVGDWQMVADLAFADLALWFPHPEFGYIALAHVRPSTSHTVFHADFVGEGIRSDLRPLVDKAWNSRSIERSSETSWSSEMALRVEAVPMVRNGRTLAVVTSHMDLSSSRMPSRLELTYRQCAYDLLRMGTLGLWPDFASPTGSRRGAPRVGDGLIRLDAEGIVQYASPNGVSAFRRLGEVESLEGRSLAEVTAGLLKDRRMVDETLPLVVTGRMPWRSEIESRGVSLSLRAIPLRDEQHRFGALVLCRDVSELRRREMELVTKDATIREIHHRVKNNLQTVAALLRMQSRRMVSDEAKQGLEQAMRRVATIALVHETLSQGLTQSVDFDELIGRQFRLSAEVASPSQQVRTERSGLFGELPSDFATPLALVINELVTNAVEHGLEGRTGTVWLLADRADGDGNDEFLTVTIADDGVGLPDGQYTEGLGLQIVRTLVTSELGGSIQWSPREGGGTAVEIVLNLARA | not soluble |
